# Reference: patent US7109015B2, “Removal of N-terminal methionine from proteins by engineered methionine aminopeptidase” (Academia Sinica, priority 2004, dated 2006)
# Where two headings read alike, the source gives them in different places.
# Columns and labels:
# Met-tagged onconase = assay: In vivo catalytic activity of MetAPs co-expressed with Met-tagged onconase in E. coli BL21(DE3); N-terminus by Edman degradation; format: cell-based; details: in vivo in E. coli
# From the text: Residues Tyr168, Met206 and Gln233 in the putative substrate-binding site of E. coli MetAP were mutated by site-directed mutagenesis based on the crystal structure and amino acid sequence alignment of MetAPs (Ben-Bassat et al., 1987; Lowther et al., 1999; Walker et al., 1999). For the expression of secretory ribonucleases, the ribonuclease gene was cloned and expressed as described previously (Huang et al., 1998).
# Most of the co-expressed target protein, e.g., onconase or RC-RNase L1, existed in insoluble cell lysate. They were denatured, renatured and purified as described previously (Liao et al., 2003). The purified ribonucleases were stored in 20 mM sodium phosphate, pH 7.0, for pyroglutamate formation at the N-terminus. Alternatively, the ribonuclease secreted into culture medium through pe1B system was concentrated and purified to electrophoretical homogeneity at a yield of 1˜5 mg per 1 liter of culture (Huang et al., 1998).
# synthetic oligopeptides = format: biochemical; details: 4 mM oligopeptide, pH 7.5, 37° C.
# Description: The oligopeptide substrates used in this experiment were synthesized on the 432A Synergy peptide synthesizer (Applied Biosystems, Foster, Calif., USA). The enzymatic activity of purified MetAP was assayed as described by Ben-Bassat et al., 1987. Briefly, the diluted MetAP enzyme in 10 μl was added to 90 μl of the substrate solution containing 4 mM oligopeptide, 0.1 M potassium phosphate buffer, pH 7.5 and 0.2 mM CoCl2, incubated at 37° C. for 10 min and stopped in boiling water for 2 min. After addition of 0.9 ml of color development mixture containing 0.2 mg of L-amino acid oxidase, 0.03 mg of horseradish peroxidase and 0.2 mg of o-dianisidine in 0.1 M Tris-HCl, pH 7.4, the mixtures were incubated for 10 min at 37° C., and the optical density at 440 nm was recorded. One unit of activity is defined as 1 μmol of amino acids produced per min under the assay conditions and the pure Met was used as standard. The N-terminal residues of the MetAP-treated oligopeptide were further verified by Edman degradation.
molecule,measurement,setting,value
"MetAP-Q233G: E. coli MetAP with Gln233 replaced by Gly (protein, UniProt P0AE18 2-264, looked up, variant Q233G) Methionine aminopeptidase: AISIKTPEDIEKMRVAGRLAAEVLEMIEPYVKPGVSTGELDRICNDYIVNEQHAVSACLGYHGYPKSVCISINEVVCHGIPDDAKLLKDGDIVNIDVTVIKDGFHGDTSKMFIVGKPTIMGERLCRITQESLYLALRMVKPGINLREIGAAIQKFVEAEGFSVVREYCGHGIGRGFHEEPQVLHYDSRETNVVLKPGMTFTIEPMVNAGKKEIRTMKDGWTVKTKDRSLSAGYEHTIVVTDNGCEILTLRKDDTIPAIISHDE",Catalytic activity (%): removal of N-terminal Met,Met-tagged onconase; substrate MQD-Onc,74%
"MetAP-M206G: E. coli MetAP with Met206 replaced by Gly (protein, UniProt P0AE18 2-264, looked up, variant M206G) Methionine aminopeptidase: AISIKTPEDIEKMRVAGRLAAEVLEMIEPYVKPGVSTGELDRICNDYIVNEQHAVSACLGYHGYPKSVCISINEVVCHGIPDDAKLLKDGDIVNIDVTVIKDGFHGDTSKMFIVGKPTIMGERLCRITQESLYLALRMVKPGINLREIGAAIQKFVEAEGFSVVREYCGHGIGRGFHEEPQVLHYDSRETNVVLKPGMTFTIEPGVNAGKKEIRTMKDGWTVKTKDRSLSAQYEHTIVVTDNGCEILTLRKDDTIPAIISHDE",Catalytic activity (%): removal of N-terminal Met,Met-tagged onconase; substrate MQD-Onc,85%
MetAP-*GG (protein) AISIKTPEDIEKMRVAGRLAAEVLEMIEPYVKPGVSTGELDRICNDYIVNEQHAVSACLGYHGYPKSVCISINEVVCHGIPDDAKLLKDGDIVNIDVTVIKDGFHGDTSKMFIVGKPTIMGERLCRITQESLYLALRMVKPGINLREIGAAIQKFVEAEGFSVVREYCGHGIGRGFHEEPQVLHYDSRETNVVLKPGMTFTIEPGVNAGKKEIRTMKDGWTVKTKDRSLSAGYEHTIVVTDNGCEILTLRKDDTIPAIISHDE,Specific activity (unit/mg),synthetic oligopeptides; substrate MADY (SEQ ID NO:7),0.51 ± 0.01 unit/mg
same,Specific activity (unit/mg),synthetic oligopeptides; substrate MADYLT (SEQ ID NO:8),0.29 ± 0.01 unit/mg
same,Specific activity (unit/mg),synthetic oligopeptides; substrate MQDYLT (SEQ ID NO:9),0.29 ± 0.02 unit/mg
same,Specific activity (unit/mg),synthetic oligopeptides; substrate […] (SEQ ID NO:5),3.28 ± 0.04 unit/mg
same,Specific activity (unit/mg),synthetic oligopeptides; substrate […] (SEQ ID NO:6),0.50 ± 0.02 unit/mg
same,Catalytic activity (%): removal of N-terminal Met,Met-tagged onconase; substrate MID-Onc,5%
same,Catalytic activity (%): removal of N-terminal Met,Met-tagged onconase; substrate MLD-Onc,18%
same,Catalytic activity (%): removal of N-terminal Met,Met-tagged onconase; substrate MQD-Onc,96%
MetAP-*TT (protein) AISIKTPEDIEKMRVAGRLAAEVLEMIEPYVKPGVSTGELDRICNDYIVNEQHAVSACLGYHGYPKSVCISINEVVCHGIPDDAKLLKDGDIVNIDVTVIKDGFHGDTSKMFIVGKPTIMGERLCRITQESLYLALRMVKPGINLREIGAAIQKFVEAEGFSVVREYCGHGIGRGFHEEPQVLHYDSRETNVVLKPGMTFTIEPTVNAGKKEIRTMKDGWTVKTKDRSLSATYEHTIVVTDNGCEILTLRKDDTIPAIISHDE,Specific activity (unit/mg),synthetic oligopeptides; substrate MADY (SEQ ID NO:7),0.38 ± 0.03 unit/mg
same,Specific activity (unit/mg),synthetic oligopeptides; substrate MADYLT (SEQ ID NO:8),0.12 ± 0.01 unit/mg
same,Specific activity (unit/mg),synthetic oligopeptides; substrate MQDYLT (SEQ ID NO:9),0.13 ± 0.01 unit/mg
same,Specific activity (unit/mg),synthetic oligopeptides; substrate […] (SEQ ID NO:5),1.00 ± 0.08 unit/mg
same,Specific activity (unit/mg),synthetic oligopeptides; substrate […] (SEQ ID NO:6),0.25 ± 0.01 unit/mg
same,Catalytic activity (%): removal of N-terminal Met,Met-tagged onconase; substrate MQD-Onc,93%
"MetAP-M206T: E. coli MetAP with Met206 replaced by Thr (protein, UniProt P0AE18 2-264, looked up, variant M206T) Methionine aminopeptidase: AISIKTPEDIEKMRVAGRLAAEVLEMIEPYVKPGVSTGELDRICNDYIVNEQHAVSACLGYHGYPKSVCISINEVVCHGIPDDAKLLKDGDIVNIDVTVIKDGFHGDTSKMFIVGKPTIMGERLCRITQESLYLALRMVKPGINLREIGAAIQKFVEAEGFSVVREYCGHGIGRGFHEEPQVLHYDSRETNVVLKPGMTFTIEPTVNAGKKEIRTMKDGWTVKTKDRSLSAQYEHTIVVTDNGCEILTLRKDDTIPAIISHDE",Catalytic activity (%): removal of N-terminal Met,Met-tagged onconase; substrate MQD-Onc,86%
"MetAP-M206V: E. coli MetAP with Met206 replaced by Val (protein, UniProt P0AE18 2-264, looked up, variant M206V) Methionine aminopeptidase: AISIKTPEDIEKMRVAGRLAAEVLEMIEPYVKPGVSTGELDRICNDYIVNEQHAVSACLGYHGYPKSVCISINEVVCHGIPDDAKLLKDGDIVNIDVTVIKDGFHGDTSKMFIVGKPTIMGERLCRITQESLYLALRMVKPGINLREIGAAIQKFVEAEGFSVVREYCGHGIGRGFHEEPQVLHYDSRETNVVLKPGMTFTIEPVVNAGKKEIRTMKDGWTVKTKDRSLSAQYEHTIVVTDNGCEILTLRKDDTIPAIISHDE",Catalytic activity (%): removal of N-terminal Met,Met-tagged onconase; substrate MQD-Onc,61%
"MetAP-Q233T: E. coli MetAP with Gln233 replaced by Thr (protein, UniProt P0AE18 2-264, looked up, variant Q233T) Methionine aminopeptidase: AISIKTPEDIEKMRVAGRLAAEVLEMIEPYVKPGVSTGELDRICNDYIVNEQHAVSACLGYHGYPKSVCISINEVVCHGIPDDAKLLKDGDIVNIDVTVIKDGFHGDTSKMFIVGKPTIMGERLCRITQESLYLALRMVKPGINLREIGAAIQKFVEAEGFSVVREYCGHGIGRGFHEEPQVLHYDSRETNVVLKPGMTFTIEPMVNAGKKEIRTMKDGWTVKTKDRSLSATYEHTIVVTDNGCEILTLRKDDTIPAIISHDE",Catalytic activity (%): removal of N-terminal Met,Met-tagged onconase; substrate MQD-Onc,88%
